According to the MegaScale stability set (Tsuboyama et al. 2023):

B1: 1ZHC (parent)
chain: HEFRDEISVLKANNPHFDKIFEKHNQLDDDIKTAEQQNASDAEVSHMKKQKLKLKDEIHSMIIEYREK
B2: HEEH_KT_rd6_3546 (parent)
chain: SEEDKEREHWERLNRDFELRVLDTTFIAHHAEEVIKLLRWLEK

Variants of: B1
Test: folding stability dG (cDNA display proteolysis); higher = more stable
Conditions: PBS, room temperature

Variant | folding stability dG [kcal/mol]
HEFRDEISVLKANNPHFDKIFEKHNQLDDDIKTAEQQNASDAEVSHMKKQKLKLKDEIHSMIIEYRDK | 0.551
HEFRDEISVLKANNPHFDKIFEKHNQLDDDIKTAEQQNASDAEVSHMKKQKLKLKDEIHSMIIEYRFK | 0.916
HEFRDEISVLKANNPHFDKIFEKHNQLDDDIKTAEQQNASDAEVSHMKKQKLKLKDEIHSMIIEYRGK | 0.605
HEFRDEISVLKANNPHFDKIFEKHNQLDDDIKTAEQQNASDAEVSHMKKQKLKLKDEIHSMIIEYRHK | 1.04
HEFRDEISVLKANNPHFDKIFEKHNQLDDDIKTAEQQNASDAEVSHMKKQKLKLKDEIHSMIIEYRIK | 1.07
HEFRDEISVLKANNPHFDKIFEKHNQLDDDIKTAEQQNASDAEVSHMKKQKLKLKDEIHSMIIEYRKK | 1.08
HEFRDEISVLKANNPHFDKIFEKHNQLDDDIKTAEQQNASDAEVSHMKKQKLKLKDEIHSMIIEYRLK | 1.02
HEFRDEISVLKANNPHFDKIFEKHNQLDDDIKTAEQQNASDAEVSHMKKQKLKLKDEIHSMIIEYRMK | 0.866
HEFRDEISVLKANNPHFDKIFEKHNQLDDDIKTAEQQNASDAEVSHMKKQKLKLKDEIHSMIIEYRNK | 1.26
HEFRDEISVLKANNPHFDKIFEKHNQLDDDIKTAEQQNASDAEVSHMKKQKLKLKDEIHSMIIEYRQK | 1.18
HEFRDEISVLKANNPHFDKIFEKHNQLDDDIKTAEQQNASDAEVSHMKKQKLKLKDEIHSMIIEYRRK | 1.3
HEFRDEISVLKANNPHFDKIFEKHNQLDDDIKTAEQQNASDAEVSHMKKQKLKLKDEIHSMIIEYRSK | 1.04
HEFRDEISVLKANNPHFDKIFEKHNQLDDDIKTAEQQNASDAEVSHMKKQKLKLKDEIHSMIIEYRTK | 1.38
HEFRDEISVLKANNPHFDKIFEKHNQLDDDIKTAEQQNASDAEVSHMKKQKLKLKDEIHSMIIEYRVK | 0.889
HEFRDEISVLKANNPHFDKIFEKHNQLDDDIKTAEQQNASDAEVSHMKKQKLKLKDEIHSMIIEYRWK | 0.996
HEFRDEISVLKANNPHFDKIFEKHNQLDDDIKTAEQQNASDAEVSHMKKQKLKLKDEIHSMIIEYRYK | 0.933
HEFRDEISVLKANNPHFDKIFEKHNQLDDDIKTAEQQNASDAEVSHMKKQKLKLKDEIHSMIIEYREA | 0.786

Variant | folding stability dG [kcal/mol]
HEFRDEISVLKANNPHFDKIFEKHNQLDDDIKTAEQQNASDAEVSHMKKQKLKLKDEIHSMIIEYREC | 0.745
HEFRDEISVLKANNPHFDKIFEKHNQLDDDIKTAEQQNASDAEVSHMKKQKLKLKDEIHSMIIEYRED | -0.648
HEFRDEISVLKANNPHFDKIFEKHNQLDDDIKTAEQQNASDAEVSHMKKQKLKLKDEIHSMIIEYREE | -0.339
HEFRDEISVLKANNPHFDKIFEKHNQLDDDIKTAEQQNASDAEVSHMKKQKLKLKDEIHSMIIEYREF | 0.363
HEFRDEISVLKANNPHFDKIFEKHNQLDDDIKTAEQQNASDAEVSHMKKQKLKLKDEIHSMIIEYREG | 0.495
HEFRDEISVLKANNPHFDKIFEKHNQLDDDIKTAEQQNASDAEVSHMKKQKLKLKDEIHSMIIEYREH | 0.512
HEFRDEISVLKANNPHFDKIFEKHNQLDDDIKTAEQQNASDAEVSHMKKQKLKLKDEIHSMIIEYREI | 0.298
HEFRDEISVLKANNPHFDKIFEKHNQLDDDIKTAEQQNASDAEVSHMKKQKLKLKDEIHSMIIEYREL | 0.469
HEFRDEISVLKANNPHFDKIFEKHNQLDDDIKTAEQQNASDAEVSHMKKQKLKLKDEIHSMIIEYREM | 0.491
HEFRDEISVLKANNPHFDKIFEKHNQLDDDIKTAEQQNASDAEVSHMKKQKLKLKDEIHSMIIEYREN | 0.792
HEFRDEISVLKANNPHFDKIFEKHNQLDDDIKTAEQQNASDAEVSHMKKQKLKLKDEIHSMIIEYREQ | 0.861
HEFRDEISVLKANNPHFDKIFEKHNQLDDDIKTAEQQNASDAEVSHMKKQKLKLKDEIHSMIIEYRER | 1.2
HEFRDEISVLKANNPHFDKIFEKHNQLDDDIKTAEQQNASDAEVSHMKKQKLKLKDEIHSMIIEYRES | 0.62
HEFRDEISVLKANNPHFDKIFEKHNQLDDDIKTAEQQNASDAEVSHMKKQKLKLKDEIHSMIIEYRET | 0.49
HEFRDEISVLKANNPHFDKIFEKHNQLDDDIKTAEQQNASDAEVSHMKKQKLKLKDEIHSMIIEYREV | 0.338
HEFRDEISVLKANNPHFDKIFEKHNQLDDDIKTAEQQNASDAEVSHMKKQKLKLKDEIHSMIIEYREW | 0.673
HEFRDEISVLKANNPHFDKIFEKHNQLDDDIKTAEQQNASDAEVSHMKKQKLKLKDEIHSMIIEYREY | 0.578

Variants of: B2
Test: as above
Conditions: PBS, room temperature

Variant | folding stability dG [kcal/mol]
AEEDKEREHWERLNRDFELRVLDTTFIAHHAEEVIKLLRWLEK | 1.28
CEEDKEREHWERLNRDFELRVLDTTFIAHHAEEVIKLLRWLEK | 2.12
DEEDKEREHWERLNRDFELRVLDTTFIAHHAEEVIKLLRWLEK | 1.36
EEEDKEREHWERLNRDFELRVLDTTFIAHHAEEVIKLLRWLEK | 1.19
FEEDKEREHWERLNRDFELRVLDTTFIAHHAEEVIKLLRWLEK | 1.13
GEEDKEREHWERLNRDFELRVLDTTFIAHHAEEVIKLLRWLEK | 1.51
HEEDKEREHWERLNRDFELRVLDTTFIAHHAEEVIKLLRWLEK | 1.35
IEEDKEREHWERLNRDFELRVLDTTFIAHHAEEVIKLLRWLEK | 1.22
KEEDKEREHWERLNRDFELRVLDTTFIAHHAEEVIKLLRWLEK | 1.18
